Assays:
[1] = target: GST-fused human V158 FcγRIIIa (extracellular region) (human) (UniProt P08637); experiment: SPR, GST-FcγRIIIa V158 on chip
[2] = target: GST-fused human V158 FcγRIIIa (extracellular region) (human) (UniProt P08637); experiment: AlphaScreen competition with biotinylated WT AC10

GST-fused human V158 FcγRIIIa (extracellular region) (human), sequence (P08637 17-208 F176V): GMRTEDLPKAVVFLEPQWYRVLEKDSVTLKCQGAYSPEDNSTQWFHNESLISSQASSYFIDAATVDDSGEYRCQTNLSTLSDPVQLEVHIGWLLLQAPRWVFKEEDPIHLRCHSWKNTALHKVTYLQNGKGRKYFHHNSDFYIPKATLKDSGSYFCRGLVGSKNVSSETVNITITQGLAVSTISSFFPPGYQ

Work on WT AC10 antibody (L0/H0) yielded a Kd [1] of 18.6 nM and an IC50 [2] of 87.2 nM.

Reference: patent US7930107
